From patent publication US6699662, “Inhibitors of staphylococcus SarA protein function involved in the expression of staphylococcal virulence factors and the use thereof in treating staphylococcal infections” (University of Arkansas)

Target: T1, SarA (staphylococcal accessory regulator A), strain DB (Staphylococcus aureus, UniProt Q2G2U9 SEQ:1-124)
T1 sequence: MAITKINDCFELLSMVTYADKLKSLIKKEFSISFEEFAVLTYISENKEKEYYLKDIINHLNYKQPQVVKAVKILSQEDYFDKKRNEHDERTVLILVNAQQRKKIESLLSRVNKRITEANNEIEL
Experiment: footprint
Conditions: tags: none (untagged full-length, expressed from pET9a in E. coli BL21(DE3)pLys); chain copies: 2 (dimer, stated); label: 32P

B1: agr P2-P3 inter-promoter region (cloned in pBKH50; DNase I footprint fragment about 240 bp with vector ends) (dsDNA)
DNA 1: CATTAAAACATGCTAAAAGCATTTATTTTCCAATTTTTCTTAACTAGTCGTTTTTTATTCTTAACTGTAAATTTTTTTATGTTAAAATATTAAATACAAATTACATTTAACAGTTAAGTATTTATTTCCTACAGTTAGGCAATATAATGATAAAAGATTGTACTAAATCGTATAATGACAGGATCCCCGG
DNA 2: CCGGGGATCCTGTCATTATACGATTTAGTACAATCTTTTATCATTATATTGCCTAACTGTAGGAAATAAATACTTAACTGTTAAATGTAATTTGTATTTAATATTTTAACATAAAAAAATTTACAGTTAAGAATAAAAAACGACTAGTTAAGAAAAATTGGAAAATAAATGCTTTTAGCATGTTTTAAGT
apparent K (half saturation): 4.24 pM
